Assay results published in the Human Domainome abundance scans (Beltran et al. 2025).
± gives the uncertainty stated by the source.

B1: Peripheral plasma membrane protein CASK, residues 488 to 569; numbered along this chain, O14936 (parent)
chain: VRLVQFQKNTDEPMGITLKMNELNHCIVARIMHGGMIHRQGTLHVGDEIREINGISVANQTVEQLQKMLREMRGSITFKIVP

Variants of: B1
Experiment: abundance fitness (aPCA) (normalised: wild type 0, dead -1); higher = more abundant; growth selection in yeast, the domain comes from the species named
Details: Homo sapiens

First: L3A
Second: L3I
The abundance fitness of the first is lower: -0.14 ± 0.029 for the first, 0.085 ± 0.064 for the second.

Going from I16L to I16V, the abundance fitness falls from 0.088 ± 0.036 to -0.081 ± 0.034.

First: T17N
Second: R50M
The abundance fitness of the first is lower: -0.09 ± 0.032 for the first, 0 ± 0.054 for the second.

First: T61W
Second: T61P
The abundance fitness of the first is lower: -0.853 ± 0.051 for the first, -0.048 ± 0.03 for the second.

Going from T61R to F6C, the abundance fitness rises from -0.095 ± 0.022 to -0.01 ± 0.029.

Compared with F6T, F6A is higher in abundance fitness: -0.129 ± 0.028 for the first, -0.065 ± 0.022 for the second.

A29S and A29K are within error of each other in abundance fitness: -0.051 ± 0.038 for the first, -0.059 ± 0.043 for the second.

A29M and A29E are within error of each other in abundance fitness: -0.057 ± 0.047 for the first, 0.003 ± 0.038 for the second.

A29Y and D11K are within error of each other in abundance fitness: -0.198 ± 0.11 for the first, -0.054 ± 0.061 for the second.

D11M and D11C are within error of each other in abundance fitness: -0.11 ± 0.06 for the first, -0.136 ± 0.057 for the second.

Compared with R73P, R73G is higher in abundance fitness: -0.357 ± 0.041 for the first, -0.022 ± 0.021 for the second.

R73W and R73Y are within error of each other in abundance fitness: -0.117 ± 0.027 for the first, -0.157 ± 0.11 for the second.

E48I and E48C are within error of each other in abundance fitness: -0.073 ± 0.073 for the first, -0.017 ± 0.045 for the second.

Compared with E48D, I76D is lower in abundance fitness: -0.108 ± 0.049 for the first, -0.818 ± 0.1 for the second.

Going from I76P to I76T, the abundance fitness rises from -0.647 ± 0.094 to -0.269 ± 0.04.

Compared with G74I, G74C is higher in abundance fitness: -1.13 ± 0.2 for the first, -0.5 ± 0.066 for the second.

First: D47R
Second: D47E
The abundance fitness of the first is lower: -0.939 ± 0.11 for the first, -0.323 ± 0.061 for the second.

First: D47T
Second: K67D
The abundance fitness of the first is lower: -0.788 ± 0.15 for the first, 0.02 ± 0.038 for the second.

I55V and P82H are within error of each other in abundance fitness: -0.035 ± 0.024 for the first, -0.151 ± 0.097 for the second.

N9F and N9S are within error of each other in abundance fitness: -0.035 ± 0.043 for the first, -0.009 ± 0.025 for the second.

First: N9Q
Second: I37H
The abundance fitness of the first is higher: -0.008 ± 0.027 for the first, -0.294 ± 0.05 for the second.

Compared with I37P, I37R is lower in abundance fitness: -0.42 ± 0.044 for the first, -0.531 ± 0.026 for the second.

Compared with V4L, C26D is lower in abundance fitness: -0.024 ± 0.025 for the first, -0.868 ± 0.091 for the second.

C26S and I80R are within error of each other in abundance fitness: -0.732 ± 0.043 for the first, -0.795 ± 0.081 for the second.

Going from S75K to V81H, the abundance fitness falls from 0.005 ± 0.033 to -0.073 ± 0.041.

Going from V81G to V28Y, the abundance fitness falls from -0.106 ± 0.041 to -0.779 ± 0.11.

Going from V28N to V1S, the abundance fitness rises from -1.01 ± 0.25 to -0.095 ± 0.038.

Compared with V1K, K79V is lower in abundance fitness: -0.046 ± 0.063 for the first, -0.213 ± 0.048 for the second.

Compared with K79H, Q60P is lower in abundance fitness: -0.006 ± 0.039 for the first, -0.984 ± 0.072 for the second.

Going from Q66A to Q66L, the abundance fitness falls from -0.04 ± 0.023 to -0.094 ± 0.024.

Compared with Q66K, M68A is higher in abundance fitness: -0.128 ± 0.034 for the first, -0.02 ± 0.025 for the second.

Compared with G46V, G46D is higher in abundance fitness: -1.04 ± 0.092 for the first, -0.22 ± 0.04 for the second.

G46N and M32G are within error of each other in abundance fitness: -0.128 ± 0.072 for the first, -0.093 ± 0.028 for the second.

M32T and M32W are within error of each other in abundance fitness: 0.015 ± 0.044 for the first, -0.045 ± 0.045 for the second.

M32N and M32Y are within error of each other in abundance fitness: 0.062 ± 0.078 for the first, -0.086 ± 0.072 for the second.

Compared with M72H, M72E is lower in abundance fitness: -0.009 ± 0.046 for the first, -0.085 ± 0.028 for the second.

E63F and Q40A are within error of each other in abundance fitness: -0.023 ± 0.06 for the first, -0.016 ± 0.02 for the second.

First: Q40P
Second: L69H
The abundance fitness of the first is higher: -0.552 ± 0.04 for the first, -0.777 ± 0.097 for the second.

Going from L69A to H25E, the abundance fitness rises from -0.355 ± 0.026 to 0.019 ± 0.027.

H25Q and H25R are within error of each other in abundance fitness: 0.019 ± 0.03 for the first, -0.016 ± 0.021 for the second.

Going from N53P to N53A, the abundance fitness rises from -0.719 ± 0.12 to -0.308 ± 0.041.

Compared with N53K, Q5W is higher in abundance fitness: -0.816 ± 0.12 for the first, -0.106 ± 0.028 for the second.

First: Q5R
Second: Q5Y
The abundance fitness of the first is higher: 0.074 ± 0.023 for the first, -0.024 ± 0.031 for the second.

First: G15Q
Second: L43S
The abundance fitness of the first is higher: -0.362 ± 0.06 for the first, -0.755 ± 0.051 for the second.

Compared with L43P, N24H is higher in abundance fitness: -0.658 ± 0.06 for the first, -0.006 ± 0.037 for the second.

N24Y and N24F are within error of each other in abundance fitness: -0.226 ± 0.043 for the first, -0.252 ± 0.045 for the second.

Compared with A58L, A58K is higher in abundance fitness: -0.052 ± 0.027 for the first, 0.053 ± 0.035 for the second.

A58F and A58N are within error of each other in abundance fitness: -0.087 ± 0.057 for the first, -0.076 ± 0.053 for the second.

E71C and E71L are within error of each other in abundance fitness: -0.022 ± 0.034 for the first, -0.074 ± 0.028 for the second.

M36H and M36E are within error of each other in abundance fitness: 0.075 ± 0.061 for the first, 0.009 ± 0.042 for the second.

M36Y and V45I are within error of each other in abundance fitness: 0.066 ± 0.072 for the first, -0.046 ± 0.047 for the second.

V45R and H33F are within error of each other in abundance fitness: -0.169 ± 0.043 for the first, -0.102 ± 0.062 for the second.

H33Q and M14I are within error of each other in abundance fitness: 0.045 ± 0.036 for the first, 0.055 ± 0.037 for the second.

First: M14A
Second: G35S
The abundance fitness of the first is lower: -0.078 ± 0.036 for the first, 0.027 ± 0.026 for the second.

G35C and E51T are within error of each other in abundance fitness: -0.066 ± 0.035 for the first, -0.301 ± 0.29 for the second.

E51S and H44S are within error of each other in abundance fitness: 0.102 ± 0.096 for the first, -0.007 ± 0.023 for the second.

T10H and T10Y are within error of each other in abundance fitness: -0.064 ± 0.071 for the first, -0.097 ± 0.064 for the second.

I27M and I27V are within error of each other in abundance fitness: -0.052 ± 0.03 for the first, -0.045 ± 0.023 for the second.

First: M20E
Second: T77C
The abundance fitness of the first is lower: -0.302 ± 0.042 for the first, -0.058 ± 0.051 for the second.

Compared with N21F, N21S is higher in abundance fitness: -0.415 ± 0.05 for the first, -0.045 ± 0.024 for the second.

Q7E and Q7D are within error of each other in abundance fitness: 0.048 ± 0.026 for the first, 0.079 ± 0.032 for the second.

Q7R and E22Y are within error of each other in abundance fitness: -0.025 ± 0.022 for the first, 0.028 ± 0.066 for the second.

E22N and E22W are within error of each other in abundance fitness: -0.075 ± 0.071 for the first, -0.138 ± 0.033 for the second.

First: E22F
Second: E22H
The abundance fitness of the first is lower: -0.277 ± 0.074 for the first, -0.037 ± 0.05 for the second.

Going from I31W to I31Y, the abundance fitness rises from -0.847 ± 0.082 to -0.579 ± 0.12.

I31H and I31S are within error of each other in abundance fitness: -0.779 ± 0.27 for the first, -0.859 ± 0.075 for the second.

Compared with I31P, I31G is lower in abundance fitness: -0.791 ± 0.082 for the first, -1 ± 0.069 for the second.

Going from I49V to I49E, the abundance fitness falls from 0.001 ± 0.035 to -0.992 ± 0.13.

Compared with I49Y, R2V is higher in abundance fitness: -0.998 ± 0.27 for the first, -0.089 ± 0.029 for the second.

Compared with R2I, R2G is lower in abundance fitness: -0.029 ± 0.06 for the first, -0.225 ± 0.024 for the second.

Compared with G34F, G34K is higher in abundance fitness: -0.385 ± 0.096 for the first, -0.177 ± 0.064 for the second.

First: G34P
Second: G41H
The abundance fitness of the first is lower: -0.373 ± 0.06 for the first, -0.07 ± 0.043 for the second.

First: G41E
Second: G41T
The abundance fitness of the first is lower: -0.1 ± 0.028 for the first, -0.033 ± 0.03 for the second.

First: G41S
Second: G41I
The abundance fitness of the first is higher: -0.098 ± 0.025 for the first, -0.55 ± 0.069 for the second.

L18A and L18T are within error of each other in abundance fitness: -0.761 ± 0.065 for the first, -0.646 ± 0.086 for the second.

Compared with V57K, V57M is higher in abundance fitness: -0.745 ± 0.052 for the first, -0.079 ± 0.035 for the second.

V57L and E12D are within error of each other in abundance fitness: -0.126 ± 0.024 for the first, -0.101 ± 0.05 for the second.

Compared with R30K, R30F is lower in abundance fitness: 0.069 ± 0.047 for the first, -0.083 ± 0.1 for the second.

Going from V62Y to V62I, the abundance fitness rises from -0.172 ± 0.041 to -0.025 ± 0.042.

Going from V62A to V62W, the abundance fitness falls from -0.007 ± 0.023 to -0.154 ± 0.026.

Going from T42Y to T42A, the abundance fitness rises from -0.076 ± 0.037 to 0.005 ± 0.024.

Going from R70C to R70P, the abundance fitness falls from -0.029 ± 0.03 to -0.229 ± 0.031.

R70T and R70Q are within error of each other in abundance fitness: -0.02 ± 0.03 for the first, -0.023 ± 0.031 for the second.

R70E gave an abundance fitness of 0.016 ± 0.028.
